Source: PMC3443672, “The solution structure of the prototype foamy virus RNase H domain indicates an important role of the basic loop in substrate binding”

Target: PFV RNase H wt (prototype foamy virus, UniProt P14350 591-751)
Assay: fluorescence anisotropy; 25 nM substrate; Fluorescence anisotropy: 25 nM substrate, excitation 652 nm, emission 673 nm; buffer, salt, pH and temperature not given (as described in ref 5)
Settings: protein: recombinant; label: DY647 at 5' end of DNA strand; blunt

B1: 10/10-mer RNA/5'-DY647-DNA (DNA:RNA)
RNA: GCGACACCUG
DNA: CAGGTGTCGC
- Kd: 23 ± 3 µM
